Measured values reported in the supplement of paper PMC7877785.
± gives the uncertainty stated by the source.

Assay: self-splicing fitness, log relative to wild type (ln ratio); higher = more splicing; Tetrahymena group I intron in knt gene, E. coli kanamycin selection, DiMSum; sequences stand for … in CUCUCU…GGAGGGAAAAGUUAUCAGGCAUGCACCUGGUAGCUAGUCUUUAAACCAAUAGAUUGCAUCGGUUUAAAAGGCAAGACCGUCAAAUUGCGGGAAAGGGGUCAACAGCCGUUCAGUACCAAGUCUCAGGGGAAACUUUGAGAUGGCCUUGCAAAGGGUAUGGUAAUAAGCUGACGGACAUGGUCCUAACCACGCAGCCAAGUCCUAAGUCAACAGAUCUUCUGUUGAUAUGGAUGCAGUUCACAGACUAAAUGUCGGUCGGGGAAGAUGUAUUCUUCUCAUAAGAUAUAGUCGGACCUCUCCUUAAUGGGAGCUAGCGGAUGAAGUGAUGCAACACUGGAGCCGCUGGGAACUAAUUUGUAUGCGAAAGUAUAUUGAUUAGUUUUGGAGUACUCGUGGUCG
Outline: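 A randomised library covering all eight P1ex-region intron nucleotides was built with the intron in the knt kanamycin-resistance gene on pET-22b(+) and held in E. coli BL21(DE3). Cells were grown overnight at 37°C or 30°C on LB agar, with or without 25 μg/mL kanamycin, plus 100 μg/mL carbenicillin, 50 μM IPTG and 0.2% rhamnose, and pooled colonies were amplicon-sequenced on an Illumina HiSeq 2500. DiMSum fitness is the error-weighted combination of wild-type-normalised replicate fold changes, kanamycin versus none.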

Sequence | self-splicing fitness (ln) (30 °C) | self-splicing fitness (ln) (37 °C)
CUAUAGCAAUAUUACGCGCC | -1.01 ± 0.43 | –
CUAUAGCAAUAUUACGCUUU | -4.86 ± 0.45 | -3.17 ± 0.28
CUAUAGCAAUAUUACGGAGA | -2.82 ± 0.3 | -1.38 ± 0.33
CUAUAGCAAUAUUACGGCAG | -1.51 ± 0.13 | -0.425 ± 0.13
CUAUAGCAAUAUUACGGGCC | -1.54 ± 0.36 | –
CUAUAGCAAUAUUACGGGGU | -4.1 ± 0.2 | -2.83 ± 0.28
CUAUAGCAAUAUUACGUAGG | -1.44 ± 0.085 | -0.685 ± 0.13
CUCAAGCAAUAUUACGAAAC | -3.86 ± 0.32 | -1.55 ± 0.17
CUCAAGCAAUAUUACGAAAU | -4.62 ± 0.46 | -2.14 ± 0.17
CUCAAGCAAUAUUACGAACU | -3.03 ± 0.2 | -1.27 ± 0.17
CUCAAGCAAUAUUACGAAUU | -4.18 ± 0.28 | -3.03 ± 0.29
CUCAAGCAAUAUUACGACCU | -2.96 ± 0.15 | -1.34 ± 0.17
CUCAAGCAAUAUUACGAGAU | -3.89 ± 0.2 | -0.936 ± 0.12
CUCAAGCAAUAUUACGAGGA | -1.9 ± 0.13 | -1.66 ± 0.13
CUCAAGCAAUAUUACGAGUG | -2.91 ± 0.11 | -1.41 ± 0.086
CUCAAGCAAUAUUACGAUAG | -2 ± 0.1 | -0.283 ± 0.1
CUCAAGCAAUAUUACGAUUC | -4.11 ± 0.27 | -2.26 ± 0.24
CUCAAGCAAUAUUACGCAGC | -4.03 ± 0.43 | -1.9 ± 0.44
CUCAAGCAAUAUUACGCAUA | -3.29 ± 0.22 | -3.07 ± 0.34
CUCAAGCAAUAUUACGCCCC | – | -1.28 ± 0.5
CUCAAGCAAUAUUACGCGAU | -2.3 ± 0.11 | -0.996 ± 0.11
CUCAAGCAAUAUUACGCGGU | -3.45 ± 0.19 | -1.07 ± 0.12
CUCAAGCAAUAUUACGCUUA | -2.62 ± 0.27 | -3.26 ± 0.37
CUCAAGCAAUAUUACGCUUG | -3.58 ± 0.18 | -2.38 ± 0.23
CUCAAGCAAUAUUACGGGAG | -2.91 ± 0.17 | -1.77 ± 0.18

Sequence | self-splicing fitness (ln) (30 °C) | self-splicing fitness (ln) (37 °C)
CUCAAGCAAUAUUACGGUUG | -3.38 ± 0.19 | -2.56 ± 0.22
CUCAAGCAAUAUUACGUAGA | -3.23 ± 0.1 | -1.53 ± 0.11
CUCAAGCAAUAUUACGUGAA | -0.683 ± 0.077 | -0.629 ± 0.12
CUCAAGCAAUAUUACGUGCG | -2.81 ± 0.14 | -0.8 ± 0.12
CUCAAGCAAUAUUACGUGGA | -3.76 ± 0.18 | -1.19 ± 0.084
CUCAAGCAAUAUUACGUUGG | -2.93 ± 0.12 | -1.5 ± 0.13
CUCCAGCAAUAUUACGACAA | -2.27 ± 0.23 | -2.29 ± 0.31
CUCCAGCAAUAUUACGACAU | -4.008 ± 0.026 | -2.95 ± 0.039
CUCCAGCAAUAUUACGACUG | -3.12 ± 0.14 | -2.83 ± 0.16
CUCCAGCAAUAUUACGAGGC | -3.02 ± 0.3 | –
CUCCAGCAAUAUUACGCACA | -1.38 ± 0.15 | -2.29 ± 0.27
CUCCAGCAAUAUUACGCACC | – | -2.4 ± 0.45
CUCCAGCAAUAUUACGCCAC | -2.7 ± 0.35 | –
CUCCAGCAAUAUUACGCCAG | -3.19 ± 0.37 | -2.08 ± 0.46
CUCCAGCAAUAUUACGCCUU | -2.33 ± 0.18 | -2.29 ± 0.27
CUCCAGCAAUAUUACGCGGA | -3.39 ± 0.2 | -3.02 ± 0.22
CUCCAGCAAUAUUACGCGGG | -3.86 ± 0.24 | -1.82 ± 0.23
CUCCAGCAAUAUUACGCGUG | -2.19 ± 0.075 | -1.29 ± 0.085
CUCCAGCAAUAUUACGCUAU | -3.89 ± 0.33 | -2.44 ± 0.22
CUCCAGCAAUAUUACGCUGA | -2.59 ± 0.18 | -2.65 ± 0.22
CUCCAGCAAUAUUACGGACU | -2.61 ± 0.24 | -2.07 ± 0.33
CUCCAGCAAUAUUACGGCCU | -3.5 ± 0.2 | -1.63 ± 0.24
CUCCAGCAAUAUUACGGGUU | -3.83 ± 0.2 | -2.91 ± 0.2
CUCCAGCAAUAUUACGGUAA | -1.4 ± 0.13 | -1.8 ± 0.15
